# Source: paper PMC6392133, “Structure and Catalytic Mechanism of a Bacterial Friedel–Crafts Acylase” (Chembiochem, 2018)
# Experiments:
# [1] = target: T1, PpATase (multicomponent acyltransferase, PhlA/PhlB/PhlC) (Pseudomonas protegens, UniProt Q4K420); assay: X-ray crystal structure ([…] Å) of crystal soaked with MAPG; type: binding; details: PG bound at PhlC active site (4 of 8 PhlC copies) next to acetylated Cys88; formed in the crystal from soaked MAPG
# T1 construct: codon-optimized phlA, phlB, phlC ORFs co-expressed in E. coli; size-exclusion purified for crystals, cell-free extract for activity; heterododecamer Phl(A2C2)2B4; with 2,4-diacetylphloroglucinol biosynthesis protein PhlA; 2,4-diacetylphloroglucinol biosynthesis protein PhlB
# [2] = target: PhlA subunit of the acyltransferase from Pseudomonas protegens DSM 19095 (PpATase) (Pseudomonas protegens DSM 19095); assay: crystal structure; PpATase complex (PhlA, PhlB, PhlC co-expressed, purified by SEC); hexagonal crystal form (P6_(1)22, untreated, 2.8 Å) and orthorhombic crystal form (P2_(1)2_(1)2_(1), soaked with MAPG, 3.4 Å); crystallised at 289 K; protein-protein interactions in the crystal analysed with the EBI-Pisa server
# [3] = target: PhlC subunit of the acyltransferase from Pseudomonas protegens DSM 19095 (PpATase) (Pseudomonas protegens DSM 19095); assay: as above
compound,measurement,setting,value
"Oc1cc(O)cc(O)c1 [PG, benzene‐1,3,5‐triol]",X-ray crystal structure (3.4 Å) of crystal soaked with MAPG,[1],This density was compatible with an acetylated Cys88 residue and with a (deacetylated) PG molecule
PhlA subunit of the acyltransferase from Pseudomonas protegens DSM 19095 (PpATase) (natural protein),stoichiometry N,[2],2
PhlC subunit of the acyltransferase from Pseudomonas protegens DSM 19095 (PpATase) (natural protein),stoichiometry N,[3],2
